This note sets out measurements from CN1649900A.

Where no end group is shown, it is not given here. [ ]: non-standard residue; d: D form. sY = N[C@@H](Cc1ccc(OS(=O)(=O)O)cc1)C(=O)O

Assay [1] deals with Y1 scFv (human single-chain Fv antibody fragment Y1). Description: competition ELISA on glycocalicin, peptide taken as 25μM.
Assay [2] shares this target. Kind of assay: competition ELISA on glycocalicin, peptide taken as 2.5μM.
For assay [3] the target is unchanged. Kind of assay: competition ELISA on glycocalicin; first of three values, peptide taken as 200μM. For orientation: In an ELISA, binding on a coated surface is turned into a signal by an enzyme label.
The target is the same in assay [4]. Description: competition FACS on washed platelets; peptide 200μM.
The target is the same in assay [5]. Description: competition FACS on washed platelets; peptide 2.5μM.
Assay [6] shares this target. Kind of assay: competition ELISA on glycocalicin; peptide 200μM.
The target is the same in assay [7]. Kind of assay: competition ELISA on glycocalicin; peptide 0.5μM.
The target is the same in assay [8]. Description: competition ELISA on glycocalicin; peptide 2.5μM.
Assay [9] has the same target. Description: competition ELISA on glycocalicin; peptide 25μM.
Assay [10] concerns the target human platelet glycoprotein Ibα (GPIbα) on platelets or in platelet lysates (human) (UniProt P07359). Kind of assay: FACS on washed platelets, control without peptide.
Assay [11] shares this target. Kind of assay: cell-based or functional assay.
Assay [12] addresses Y1 scFv (human single-chain Fv antibody fragment Y1). Kind of assay: competition ELISA, Y1 scFv on glycocalicin.
Assay [13] concerns the target glycocalicin purified from human platelets (soluble extracellular fragment of GPIbα) (human) (UniProt P07359). Description: ELISA on glycocalicin.
Assay [14] concerns the target Y1 scFv (human single-chain Fv antibody fragment Y1). Description: competition ELISA on glycocalicin; peptide 25μM. The conditions noted are these: remark: other sources report otherwise.
Assay [15] has the same target. Kind of assay: competition ELISA on glycocalicin; peptide 0.5μM. The following applies: remark: other sources report otherwise.
For assay [16] the target is unchanged. Description: competition ELISA on glycocalicin; peptide 200μM. The following applies: remark: other sources report otherwise.
Assay [17] shares this target. Description: competition FACS on washed platelets; peptide 200μM. The conditions noted are these: remark: other sources report otherwise.
For assay [18] the target is unchanged. Kind of assay: competition ELISA on glycocalicin; peptide 2.5μM. The conditions noted are these: remark: other sources report otherwise.
Assay [19] shares this target. Kind of assay: competition FACS on washed platelets; peptide 2.5μM. The conditions noted are these: remark: other sources report otherwise.

Take TDL[sY]D[sY][sY]PEEDTE [P-2-S, sulfated synthetic peptide of GPIbα residues 273-285]: the residual binding of Y1 (% of baseline) in [1] worked out at 52%; in assay [2], 78%; in assay [3], 15%. Besides, the results for the residual binding of Y1 (% of baseline, Geo mean) in assay [4] and in assay [5] were 7% and 61%, respectively.
For REEGRQHFFLLEGRSSYS [EGR negative control peptide], the residual binding of Y1 (% of baseline) in assay [6] came to 85%; in assay [7], 121%; in [8], 100%; in [9], 89%. Besides, the figures for the residual binding of Y1 (% of baseline, Geo mean) in [4] and in assay [5] were 119% and 96%, respectively.

B1: Y1 scFv (human single-chain Fv antibody fragment Y1) (scFv)
scFv: EVQLVESGGGVVRPGGSLRLSCAASGFTFDDYGMSWVRQAPGKGLEWVSGINWNGGSTGYADSVKGRFTISRDNAKNSLYLQMNSLRAEDTAVYYCARMRAPVIWGQGTLVTVSRGGGGSGGGGSGGGGSSELTQDPAVSVALGQTVRITCQGDSLRSYYASWYQQKPGQAPVLVIYGKNNRPSGIPDRFSGSSSGNTASLTITGAQAEDEADYYCNSRDSSGNHVVFGGGTKLTVLGAAAEQKLISEEDLNGAA
B1: in assay [10], the residual binding of Y1 (% of baseline, Geo mean) came out at 114%. In assay [11], this molecule registered a 凝集作用%; washed platelets, ristocetin; Y1 scFv 12.5微克/毫升 of 67%; a 凝集作用%; washed platelets, ristocetin; Y1 scFv 14微克/毫升 of 92%; a 凝集作用%; washed platelets, ristocetin; Y1 scFv 25微克/毫升 of 23%; a 抑制百分比%; platelet-rich plasma, ristocetin; Y1 scFv25微克/毫升 of 13%. Also, in assay [11], the 抑制百分比%; ristocetin-induced agglutination of washed platelets; Y1 scFv 25微克/毫升 came to 77%; the 抑制百分比%; ristocetin-induced aggregation in platelet-rich plasma; Y1 scFv50微克/毫升 worked out at 80%; the 抑制百分比%; washed platelets, ristocetin; Y1 scFv 12.5微克/毫升 worked out at 33%; the 抑制百分比%; washed platelets, ristocetin; Y1 scFv 14微克/毫升 was found to be 8%. Besides, in assay [11], the 聚集作用%; platelet-rich plasma, ristocetin; Y1 scFv25微克/毫升 is 87% and the 聚集作用%; platelet-rich plasma, ristocetin; Y1 scFv50微克/毫升 came to 20%.
QATEYEYLD[sY]DFLPETE [P-YYY*, PSGL-1 N-terminal peptide sulfated on the third tyrosine] came in with a peptide concentration at which Y1 binding is effectively inhibited in assay [12] of 1 µM.

B2: CONY1, Y1 scFv monomer in which the myc tag is deleted or replaced by Lys-Ala-Lys (KAK) (scFv)
scFv: EVQLVESGGGVVRPGGSLRLSCAASGFTFDDYGMSWVRQAPGKGLEWVSGINWNGGSTGYADSVKGRFTISRDNAKNSLYLQMNSLRAEDTAVYYCARMRAPVIWGQGTLVTVSRGGGGSGGGGSGGGGSSELTQDPAVSVALGQTVRITCQGDSLRSYYASWYQQKPGQAPVLVIYGKNNRPSGIPDRFSGSSSGNTASLTITGAQAEDEADYYCNSRDSSGNHVVFGGGTKLTVLG
Consider B2, for which the concentration needed to reach 0.8 OD units in [13] is 12.8 微克/毫升.
Turning to GDEGDTDL[sY]D[sY][sY]P [P-3-S, sulfated synthetic peptide of GPIbα residues 268-280], the residual binding of Y1 (% of baseline) in assay [1] is 67%; in assay [2] it was 80%; in assay [3] it was 21%. For the same molecule, the residual binding of Y1 (% of baseline, Geo mean) in assay [4] is 26%; in assay [5], 82%.
For GDEGDTDLYDYYPEEDTE [P-1, non-sulfated synthetic peptide of GPIbα residues 268-285], the residual binding of Y1 (% of baseline) in assay [14] came to 71%; in assay [15], 88%; in assay [16] it was 61%; in assay [18] it was 94%. The residual binding of Y1 (% of baseline, Geo mean) in assay [17] was 87%; in assay [19] it was 106%.
On to GDEGDTDL[sY]D[sY][sY]PEEDTE [P-1-S, sulfated synthetic peptide of GPIbα residues 268-285], for which the residual binding of Y1 (% of baseline) in [6] was found to be 0%; in assay [7], 89%; in assay [8], 62%; in [9] it was 25%. The residual binding of Y1 (% of baseline, Geo mean) in assay [4] came to 5%; in assay [5], 41%.
Molecule QATE[sY]EYLDYDFLPETE [P-Y*YY, PSGL-1 N-terminal peptide sulfated on the first tyrosine] showed a peptide concentration at which Y1 binding is effectively inhibited in assay [12] of 100 µM.
